Data from patent US6214868A, “Method for preventing or treating coronary restenosis with catechin” (Sam-A Pharm. Co., Ltd., priority 2000, dated 2001).

Key:
Type in all cases: cell-based
p44^mapk = test: Phosphorylation of p44^mapk in rat VSMCs (western blotting); conditions: in words; western blot
Experimental: (§1) The resulting culture was incubated for 24 hours. 50 ng/ml of PDGF-BB was added thereto and kept for 5 minutes. […] The above procedure was also repeated without PDGF-BB treatment.
(§2) The VSMC was lysed and the VSMC lysate(corresponding amount to 70 μg proteins) was subjected to SDS-PAGE. The proteins separated on the gel was transferred to a nitrocellulose membrane and the membrane was saturated with Tris buffered saline(TBS) containing 3% milk protein. A primary antibody(Promega, dilution ratio: 1:5,000) for catalytically activated p44^mapk /p42^mapk whose threonine and tyrosine residues are phosphorylated, was added thereto and kept over night. The membrane was washed three times with TBS containing 0.05% Tween 20. The membrane was reacted with a horseradish peroxidase-conjugated anti-IgG secondary antibody and developed using Amersham ECL kit. Linearity of MAPK concentration-ECL signal correlation was examined using standard p42, a recombinant, activated MAPK(Upstate Biotechnology), and serially diluted artery tissue homogenate. Bands on the X-ray film were quantified using Molecular Dynamics personal laser densitometer.

p42^mapk = test: Phosphorylation of p42^mapk in rat VSMCs (western blotting); conditions: in words; western blot
Experimental: as §1, §2

rat VSMCs = test: Inhibition of VSMC growth, 3H-thymidine DNA incorporation, in the presence of PDGF-BB; conditions: in words; 50 ng/ml PDGF-BB, control data
Experimental: Each rat was suffocated with CO2, and its chest was disinfected and incised to remove the arteriae aorta. All operative apparatus and glass articles were autoclaved and all operations were conducted on a clean bench. The arteriae aorta was dipped in physiological salt solution(PSS) and its adipose tissues were removed. The resulting arteriae aorta was treated with 0.2% collagenase in an incubator maintained at 37° C. for 30 minutes. Its endothelium and adventitia were removed and the resulting arteriae aorta was ground up. A complete DMEM (DMEM containing 10% FBS, an antibiotic and glutamine) containing 0.2% collagenase was added thereto and the resulting mixture was kept at 37° C. for 4 hours while shaking with an orbital shaker.
The resulting mixture was centrifuged at 1,500×g for 5 minutes to remove the collagenase and the cell precipitate was suspended in an appropriate amount of complete DMEM. […]
The wells were washed twice with a serum-free medium, Hunger medium(Gibco), and fresh Hunger medium was added thereto. […] A 50 μl portion of the resulting reaction mixture was subjected to protein quantification. Further, a 100 μl portion of the resulting reaction mixture was added to 5 ml of a cocktail solution to measure the radioactivity, thereby determining the amount of ^3 H-thymidine incorporated into the cell. […]

B1: PDGF-BB: platelet derived growth factor(PDGF)-BB (protein, UniProt P01127 82-190, looked up)
Platelet-derived growth …: SLGSLTIAEPAMIAECKTRTEVFEISRRLIDRTNANFLVWPPCVEVQRCSGCCNNRNVQCRPTQVQLRPVQVRKIEIVRKKPIFKKATVTLEDHLACKCETVAAARPVT
modifications: BB homodimer
Q: Which results are given for B1?
A: phosphorylated p44^mapk /p42^mapk band density (p44) (p44^mapk): enhanced density as compared with the blank; phosphorylated p44^mapk /p42^mapk band density (p42) (p42^mapk): enhanced density as compared with the blank; VSMC growth on PDGF-BB treatment (rat VSMCs): greatly enhances the VSMC growth
